{
  "source": "paper PMC9771723",
  "about": "(iScience, 2022)",
  "target": "the molecule itself",
  "assay": "cross-linking",
  "data": [
    {"protein": "MSLLTEVETPIRNEWGCRCNDSSDPLVVAASIIGILHLILWILDRL (domain or fragment)", "note": "[M2(1-46) of influenza A/Hong Kong/8/68 (H3N2) in nanodiscs]", "values": [
      {"measurement": "stoichiometry N", "result": 4}
    ]}
  ]
}
